From patent US20170121382A1 (NORTHWESTERN UNIVERSITY, published 2017)

Target: T1, PHEX (phosphate-regulating gene with homology to endopeptidase on the X chromosome), endogenous mouse protein (mouse, UniProt P70669 1-749)
T1 construct: Endogenous PHEX of mouse bone extracts (coIP); The same id stands for the endogenous PHEX of mouse MC3T3-E1 cells and of mice in the functional rows; also called bone metallo-endopeptidase PHEX
T1 sequence (looked up): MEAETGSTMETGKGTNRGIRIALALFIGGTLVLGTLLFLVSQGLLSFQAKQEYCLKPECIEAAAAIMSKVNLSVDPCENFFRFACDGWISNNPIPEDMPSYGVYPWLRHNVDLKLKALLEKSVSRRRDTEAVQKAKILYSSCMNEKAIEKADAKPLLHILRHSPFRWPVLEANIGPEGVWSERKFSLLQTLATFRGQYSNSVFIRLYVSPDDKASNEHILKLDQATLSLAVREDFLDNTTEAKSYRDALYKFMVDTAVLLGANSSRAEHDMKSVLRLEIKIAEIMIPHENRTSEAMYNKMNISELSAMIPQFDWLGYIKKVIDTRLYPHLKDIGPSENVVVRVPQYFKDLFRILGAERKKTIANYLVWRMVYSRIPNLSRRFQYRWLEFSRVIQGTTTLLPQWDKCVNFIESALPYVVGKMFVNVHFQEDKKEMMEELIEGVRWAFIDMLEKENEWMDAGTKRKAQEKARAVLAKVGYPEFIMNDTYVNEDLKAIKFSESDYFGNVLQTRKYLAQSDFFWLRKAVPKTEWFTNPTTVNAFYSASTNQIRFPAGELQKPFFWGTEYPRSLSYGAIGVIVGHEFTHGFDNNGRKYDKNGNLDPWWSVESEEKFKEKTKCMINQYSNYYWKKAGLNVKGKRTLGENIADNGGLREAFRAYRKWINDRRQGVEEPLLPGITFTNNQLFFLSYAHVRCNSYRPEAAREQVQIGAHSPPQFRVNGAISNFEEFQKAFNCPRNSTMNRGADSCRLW
Assay: coIP, anti-PHEX antibody-coated beads, mouse bone extracts, Western blot for DMP1
Procedure: FIGS. 4A-C. (FIG. 4A) PHEX binds to full length DMP1 and cDMP1. Bone protein extracts from WT and DMP1ko/cDMP1Tg were incubated with anti-PHEX antibody-coated beads. […] Negative control ((−) CTR) was obtained from uncoated beads to evaluate non-specific binding. […] The constant of dissociation (KD) between PHEX and the entire DMP1 protein reflecting binding affinity is as strong as the KD obtained previously between rPHEX and the small 19 amino acid MEPE-ASARM peptide. Data are normalized by non-specific binding at baseline and expressed as relative units (RU) of response difference. (FIG. 4C) Dose-dependent binding of rPHEX to rDMP1, represented by quantitation of the SPR sensorgram, confirms binding specificity.
Both PHEX and DMP1 are expressed by osteocytes. The ASARM sequence binds to PHEX. Co-immunoprecipitation (coIP) of PHEX and DMP1 were performed in endogenous bone protein extracts to test the presence of binding between PHEX and cDMP1. Magnetic beads were covalently coated with a PHEX antibody (Ab) and incubated with protein extracts isolated from WT or DMP1ko/cDMP1Tg mice. Detection of DMP1 in the protein pull-downs eluted from the beads was performed by Western Blot analysis using an Ab targeting the C-terminus region (FIG. 4A). […] In the DMP1ko/cDMP1Tg extracts in which full-length DMP1 is not expressed, only cDMP1 fragments were detected. […]

B1: full-length DMP1 (dentin matrix protein 1), endogenous mouse protein, ~100 kDa (other, UniProt O55188 17-503, looked up)
chain: LPVARYHNTESESSEERTGDLAGSPPPPTNSESSEESQASPEGQANSDHTDSSESGEELGYDRGQYRPAGGLSKSTGTGADKEDDEDDSGDDTFGDEDNDLGPEEGQWGGPSKLDSDEDSTDTTQSSEDSTSQENSAQDTPSDSKDHDSEDEADSRPEAGDSTQDSESEEQRVGGGSEGESSHGDGSEFDDEGMQSDDPESTRSDRGHARMSSAGIRSEESKGDHEPTSTQDSDDSQSVEFSSRKSFRRSHVSEEDYRGELTDSNSRETQSDSTEDTASKEESRSESQEDTAESQSQEDSPEGQDPSSESSEEAGEPSQESSSESQEGVTSESRGDNPDNTSQAGDQEDSESSEEDSLNTFSSSESQSTEEQADSESNESLSLSEESQESAQDGDSSSQEGLQSQSASTESRSQESQSEQDSRSEEDSDSQDSSRSKEESNSTGSASSSEEDIRPKNMEADSRKLIVDAYHNKPIGDQDDNDCQDGY
  binding result: binds
